{"source": "patent US20030194411A1", "key": {"[1]": {"molecular_target": "MN-PND peptide … (HIV-1 MN strain)", "test": "MN-PND ELISA, serum 1:20, day 0"}, "[2]": {"molecular_target": "MN-PND peptide … (HIV-1 MN strain)", "test": "MN-PND ELISA, serum 1:1000, day 0"}, "[3]": {"molecular_target": "MN-PND peptide … (HIV-1 MN strain)", "test": "MN-PND ELISA, serum 1:500, day 0"}, "[4]": {"molecular_target": "MN-PND peptide … (HIV-1 MN strain)", "test": "MN-PND ELISA, serum 1:100, day 0"}, "[5]": {"molecular_target": "MN-PND peptide … (HIV-1 MN strain)", "test": "MN-PND ELISA, serum 1:2500, day 0"}}, "data": [{"substance": "guinea pig serum sample 0 (day 0, Example V) (antibody)", "values": [{"measurement": "O.D.", "setting": "[1]", "value": 0.15, "unit": "O.D."}, {"measurement": "O.D.", "setting": "[2]", "value": 0.05, "unit": "O.D."}, {"measurement": "O.D.", "setting": "[3]", "value": 0.05, "unit": "O.D."}, {"measurement": "O.D.", "setting": "[4]", "value": 0.07, "unit": "O.D."}, {"measurement": "O.D.", "setting": "[5]", "value": 0.04, "unit": "O.D."}]}]}
